According to patent US20240262899A1 (UNIVERSITY OF VIRGINIA PATENT FOUNDATION, published 2024):

Molecular target: T1, histone H3 (H3) peptide, unmodified (UniProt P68431 2-31)
T1 construct: A synthetic peptide of histone H3, not the whole protein; also called unmodified H3
Test: western blot of peptides
Protocol: Four distinct peptides—histone H3 (H3), citrullinated histone H3 (CitH3; 4 Cit), acetylated histone H3 (AccH3), and methylated histone H3 (MetH3)—at a concentration of 0.5 microgram each, were run in duplicate through SDS-polyacrylamide gel electrophoresis and then transferred to a nitrocellulose membrane (FIG. 7A). This membrane was split into two sections for parallel probing with an equal quantity of Cayman CitH3-mAb (Ann Arbor, MI) or hCitH3-mAb (2 μg/ml) overnight. Post three extensive washes, the sections were incubated with HRP-conjugated secondary antibodies specific to mouse IgG and human IgG (Jackson ImmunoResearch Labs. Cat #309-035-008), respectively, for 2 hours. For concurrent signal development, both membrane sections were exposed simultaneously for the same duration.

B1: Y1128-VH3/VL3 (hCitH3-mAb) (antibody, V domains shown)
VH: EVQVVQSGAEVKKPGATVKISCKASGFNIKDYYMHWMKQRPEQGLEWIGWIDPENGNTIYDPKFQGRATITSDTSTDTAYLELSSLRSEDTAVYYCAPFGNYVWFAYWGQGTLVTVSS
VL: DVLMTQSPLSLPVTLGQPASISCRSSQSIVHSNGITYLEWYLQRPGQSPKLLIYKVSNRFSGVPDRFSGSGSGTDFTLKISRVEAEDVGLYYCFQGSHVPFTFGQGTKLEIKR
notes: Final lead humanized antibody; intact IgG, detected with anti-human IgG secondary; also called H3L3; humanized CitH3 monoclonal antibody
Does B1 bind?
Result: no binding (tested: 2 ug/ml antibody; 0.5 microgram peptide)
